Assay: soluble fraction after stress (log2 fold change); higher = more stays soluble; pooled small domains, quantitative proteomics
Settings: stress: 75 degC
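Also: 20 min heating vs room temperature control held 20 min.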

Row | Sequence | soluble fraction (log2)
1 | HMEELNFYPNPAYKYINLDYVGLKEIYTVLGKKLLETYDTRINISNLNSGIYLIKFKNQALRFVK | 0.0302
2 | HMSISSIDFENLKSDELSDAQITQIYRQAQEQGLSIDELSSLAIARGMSPTEVAKLRSRFNSIP | 0.0936
3 | HMIPDPEKVMFDGGIRLLTQAGITEGKARSILGKWKRDHETERIIAALGAAQREGAIEPVSFIERVLRN | -0.24
4 | HMLSRTYDSSGPDVKIRGTAQTVADKYMSLARDAQSSGDRVMAENYLQHAEHYNRIIAAAQAQ | 0.34
5 | HMNHGDATTETQAEIMAILSDMKPHPITELNTIKRPYEQIDTALTYLINEEKIYRMDGMIFIG | -1.38
6 | HMGRYVIQIASFSSKNNAIEAADKLGGFVVQSGRFYRVRTGPFATRGEADAALASARRVGYRDAFIDTS | -1.59
7 | HMELSPVDLGERLKIARETANFTQDAAAKAVGIARTTLVSIEKGQRTARLDEIQALSRFYGVSANALLR | -1.16
8 | HMKEKDAYTSEILDTLKNAKLLVVEGTVYPLLTRLKNDGLLNYRWEESTSGPPRKYYGLTDEG | -0.704
9 | HMWQPIKLDRGDWQNSLQVGDRVFVRGIPRPVEILSAVDEENNIEVLMGTMRAKIPVYQLDKPAENFIDTT | -0.362
10 | HMDNLATRILKELNNNDGFLPLSDKSQPEAIYQAFGISKKSYKTAIGTLYKKRLITISENGIQLTD | -0.67
11 | HMQISDTASIQEIAKEIIKSNPKAVEDYKKGKENALQFLVGQLMTKTKGTVHPGAARTILGDILK | -0.0025
12 | HMNNYEGIVKSVSNSNVYIQVAGRTIGYTISPHTIIMVNGKNVPASELMPGQHVSYTNKGSKLSYININS | -1.17
13 | HMRSFGRLRRRDSGRWEAAYVGPDARLYRAPATFEAKDDAIAWLSAERRMIELDTWIKPHDRASR | -1.78
14 | HMTLALKQGSTGSTVKQVQQKLKNWGYYSGAVDGIFGSGTRKAVVLFQKRNKLTADGIVGSKTLEALGIYV | -2.36
15 | HMLRLLEIIAGNEVSKEINSQVIKYYKALKNKKIEEINNLTPSYNKLIISFDLKKKNFREMKKIIEDISIN | -0.136
16 | HMEDNLVTYPNPTSDYIYVSKKVDLTVVNMLGDILIQKQNINVLDVTELTPGMYTIVIRYNNVTTNKRIIK | -0.017
17 | HMKLTEEEFNAKRKAYLDRLETLNDEAVIKATFMEAASGLGLQKGSAEFGDLRKYFVDRIVDIK | 1.01
18 | HMSRMGDSIKSLRSRNNMSQDALAEKLNVTRQAISNWENSKTQPDADTLKNLGIIFNVTVDEIINNDF | 0.0824
19 | HMKNHSTFKSVLSNIEFPINERISGHAIQNPILGLIKADHPNFSSDQYIAISELNFYREKYISNYLLTEI | -3.67
20 | HMRREKVLIKLAENLASKVLRTKKSIELEPMTPYERKVIHTTIENISGVKSWSEGENLQRHLIVALDE | -1.5
21 | HMRLSVVDLQDSLRGLEYPAGKGDLINHAREHNASADVIAVLEQFSERTYRSAADVGEEFGRV | 0.152
22 | HMNNTVLSSVKSINMFLDANGGDAGQAFRIYNNTNPDSNPTESTYIFKVAEDGNTFVKGYLNLNGTTL | -0.267
23 | HMDRKARRKYIEQVVNDRKIETQEELLKLLTEAGFETTQATISRDIHALNIVKANDGDGHTHYVQLH | -0.0596
24 | HMKPPVQVIGKAVVTASSLNVRTGPGTGHGIITSLPRNTEVELLEQQGEWYKIRRGSTVGYVHGGYLKIN | -0.311
25 | HMGDERDRLLLARGKRIYQELIGSDRENVAAALREFEAVLAVNNRRAIHVMRQRLAELFGVYEEFLNEEFL | -4.51
26 | HMNTAIPIAIDQLRIGMYIQLGLNWMSHPFPVSSFRIASESQIEILRGLGLAEVRYVPAKSDPVP | -3.26
27 | HMSQAVEISSVKTQIDGKSYYLHTIKQGQTLYGISKAYGVSVEELTTVNPETSKGLKVGQIIKVPDTKT | 0.395
28 | HMSPDALSNLPIGSEIKFTLWDGTEKRLVKHPAAYQFSRPFWMNLNEYTYVPVNRIPKNYEVIRL | 0.182

Row | Sequence | soluble fraction (log2)
29 | HMGDPMAIMQLSSNTTPEYWEAYQKYHIQEYEQSNFIRYVNGISVLDDDFVDKVLITIDQHGRIFSELKS | -3.21
30 | HMKVKGVYQLDNGYWGYRFTMLVNGKTVSQRRVKDESGNPFKTEKKAEKARLVAMAEEQTKANK | -2.22
31 | HMDVLKMKVEDLNIGSRTVNSLTAAKIKTVAGLIKKSKESLLELDGMGNKGVEEIILALKKLGLEL | -1.08
32 | HMRVLEYTADGSRLDVLLSQDGVLSRSRAAELIKGGAVTVDGRAEGKPSAKPAPGALVRVEVPE | 0.0615
33 | HMNSKYILLQVSDIPKTSLVLERQFGVTEYSVQDEHTLRIYDTSLDMAAVNKALVVQDIAVISSQL | -1.69
34 | HMAREFPGTIIKRGSRGPDVRWIQQHIGVKLVDGVFGRGTERAVKQFQSRRRLKADGIVGRQTWAAIHN | -1.16
35 | HMVQYVDFVKRMIEELPWWHRRMLELKYLDGLTYEEIADELQVPVGTVKGTLHRAKELFQEILKNN | -3.29
36 | HMAEEPLRIWTDLQGRSIEASFIKFSGNNIVIKMKSGRDYEVARSLFSPGDQKYLSDLKKSTPE | -1.5
37 | HMQSYSTIIGVIELRLSGIGYRTTKARYGIGNSTVTLIMNRFKETGFTLDDLKTMEPTKVEALFYPP | -1.36
38 | HMDTEIGDILALRQIMELLDEKDRQLIIMRYFQGLTQSVTAKNLNMTQVQVSRREKKLLTFMREQLL | -0.702
39 | HMIGMDMQELIGRYKGDPDEMGKIELAAMSMLKLSEDMSSDHVLQKSKLRQDGLWLLKYVQE | -0.637
40 | HMEDISQHAVKKLVQEMVMAEDPRDPLSDQQIAENLSRLGLKVARRTVAKYRAMLGIQPSNRRRK | -1.21
41 | HMGNKDIEILFSEIVEMRNRIIHGFRITSKQGEQILATKTRKKDGNIQFEITKEYLLDFIKKNEELSDMLY | -2.46
42 | HMAPVLTATVNTTSGKLNMRAAASATSAKLTSIPRGATVTVLEKGTTWSRISYGGYTGYVMTQYLKFD | -0.523
43 | HMDPLGALSDRERQVLALIGQGHGLQAIADQLGVSYKTAANTSSALKKKLGVDGINGLMKFALDSG | -0.443
44 | HMQELKWERNYKLVQDYIKQYGVLPSKNTKYANVSIGRWLTNQHELVKEDNLAPERFEKIKELDT | -0.297
45 | HMTSVMAWRLITPIPQHGIIRSSQVQLQKHAPNSLKFLDVDSSPVGKQVKHGIAAGHWLSKDDFTE | -1.05
46 | HMSVTVMVLRAAGDIQAGTEITDKHLATVEVGEYGLPEGIINDKDSILGKIALTDIAKGDYFFSQKLG | -0.954
47 | HMARTLSVTVSENYANMRLDSFLFESGLYPSRSKAVKQIESGKVFVNGNEPTKKTIVVANDFIVYEEYAEE | -2.63
48 | HMEITSSNELKKMISNLINSENKNNPISDSNIVEKLKENDFLVARRTVAKYRKLLGIKNVNQRKE | -0.359
49 | HMYTVKELSRLTGLTPRTLRYYDAIGLLSPARNRDNDYRLYGGAEVDRLQEILLYREMGLPLEEIGRILD | -1.51
50 | HMTGSLRIKHKTYYMLFSWKDESGQWRQKSESTGIPERGGKRKAQEMLNTRLEELQLQSTASL | -3.87
51 | HMERVIYLLNGREVPAAEIRAAEPEALTVDRFYSSENLPAEYRDRNPELVVAFTAEEPLRHY | 0.512
52 | HMSPRQVTAVRSGSPMPVLPGEDWRLYDASGALVARGSGAAPIPKSTGLLRLNSEGLDGLADRWIWVL | -0.553
53 | HMIRVVSIEDQPWFVAADVLKSLGMPTDKGVGKYLLALGSDERMLTTHGQIGGKGMAVTTIISESGLY | -0.67
54 | HMAFEDYAGEYRSAADFAESLHEDTGTEIPESLRYYIDWQALARDMALNGEIMVFQTGFDEVHIFWS | -0.63
55 | HMLKLEEIQPNATVRGILPDALITVVNVKWFGSEALELTYKDTSGRVANQLLFRDDQPRLEIVE | -1.98

Source: the domain aggregation screens of Martell et al. (2025)
